Patent US7144731B2, “SCF antibody compositions and methods of using the same” (Amgen Inc., priority 1989, dated 2006)

Assays:
[1] = test system: Steel-Dickie (S1/S1^d) mice; assay: In vivo activity in Steel-Dickie mice; parameters: species or system mouse; conditions: 100 μg/kg/day 30 days then 30 μg/kg/day 20 days, s.c.
Description: Steel mice provide a sensitive in vivo model for SCF activity. Different recombinant SCF proteins were tested in Steel-Dickie (S1/S1^d) mice for varying lengths of time. Six to ten week old Steel mice (WCB6F1-S1/S1^d) were purchased from Jackson Labs, Bar Harbor, Me. Peripheral blood was monitored by a SYSMEX F-800 microcell counter (Baxter, Irvine, Calif.) for red cells, hemoglobin, and platelets. For enumeration of peripheral white blood cell (WBC) numbers, a Coulter Channelyzer 256 (Coulter Electronics, Marietta, Ga.) was used.
In the experiment in FIG. 24, Steel-Dickie mice were treated with E. coli derived SCF^1-164, purified as in Example 10, at a dose of 100 μg/kg/day for 30 days, then at a dose of 30 μg/kg/day for an additional 20 days. The protein was formulated in injectable saline (Abbott Labs, North Chicago, Ill.) +0.1% fetal bovine serum. The injections were performed daily, subcutaneously. The peripheral blood was monitored via tail bleeds of ˜50 μl at the indicated times in FIG. 24. The blood was collected into 3% EDTA coated syringes and dispensed into powdered EDTA microfuge tubes (Brinkmann, Westbury, N.Y.). […]
Whole blood was stained for T lymphocyte subsets as follows. […] Each sample of blood was then analyzed on a FACScan cell analysis system (Becton Dickinson, Mountain View, Calif.). […]

[2] = test system: mouse bone marrow cells; assay: Pre-B cell colony formation in agar cultures; type: cell-based
Text: The ability of recombinant rat SCF^1-164 (rrSCF^1-164), to act synergistically with IL-7 to enhance lymphoid cell proliferation was studied in agar cultures of mouse bone marrow. In this assay, the colonies formed with rrSCF^1-164 alone contained monocytes, neutrophils, and blast-cells, while the colonies stimulated by IL-7 alone or in combination with rrSCF^1-164 contained primarily pre-B cells. Pre-B cells, characterized as B220^+, sIg^−, cμ^+, were identified by FACS analysis of pooled cells using fluorescence-labeled antibodies to the B220 antigen [Coffman, Immunol. Rev., 69, 5 (1982)] and to surface Ig (FITC-goat anti-K, Southern Biotechnology Assoc., Birmingham, Ala.); and by analysis of cytospin slides for cytoplasmic μ expression using fluorescence-labeled antibodies (TRITC-goat anti-μ, Southern Biotechnology Assoc.,). Recombinant human IL-7 (rhIL-7) was obtained from Biosource International (Westlake Village, Calif.). When rrSCF^1-164 was added in combination with the pre-B cell growth factor IL-7, a synergistic increase in colony formation was observed (Table 16), indicating a stimulatory role of rrSCF^1-164 on early B cell progenitors.

B1: rrSCF^1-164: recombinant rat SCF^1-164 from E. coli, also used ^125I-labelled (protein)
chain: QEICRNPVTDNVKDITKLVANLPNDYMITLNYVAGMDVLPSHCWLRDMVTHLSVSLTTLLDKFSNISEGLSNYSIIDKLGKIVDDLVACMEENAPKNVKESLKKPETRNFTPEEFFSIFNRSIDAFKDFMVASDTSDCVLSSTLGPEKDSRVSVTKPFMLPPVA
For B1, the “macrocytic anemia (hematocrit, mean red cell volume)” value [1] was “significant correction of the macrocytic anemia”, the “Colony Number per 5 × 10^4 mouse bone marrow cells plated” value ([2]; 50 ng) was 4 ± 2 and the “Colony Number per 5 × 10^4 mouse bone marrow cells plated” value ([2]; 100 ng) was 7 ± 4. For the same molecule, the “Colony Number per 5 × 10^4 mouse bone marrow cells plated” value ([2]; 200 ng, mean of triplicate dishes ± SD) was 13 ± 2.
